According to patent publication US20230212554A1 (published 2023):

What follows are binders tested against NPA3 (influenza A virus A/Aalborg/INS132/2009 …, UniProt P68042 1-489) (assay: ELISA on recombinant NP).

Row | Binder | EC50
1 | NP8 (antibody, V domains shown) VH: EVQLVESGGGLVQPGGSLRLSCAASGFTINSFGIHWVRQAPGKGLEWVAGIGPFGGSTFYADSVKGRFTISADTSKNTAYLQMNSLRAEDTAVYYCARGFYWFDYWGQGTLVTVSS VL: DIQMTQSPSSLSASVGDRVTITCRASQDVDDSVAWYQQKPGKAPKLLIYWTRYLYSGVPSRFSGSGSGTDFTLTISSLQPEDFATYYCQQGYNYPLTFGQGTKVEIKR | 0.07 nM
2 | NP9 (antibody, V domains shown) VH: EVQLVESGGGLVQPGGSLRLSCAASGFTINNGWIHWVRQAPGKGLEWVAGIGPYWGFTSYADSVKGRFMISADTSKNTAYLQMNSLRAEDTAVYYCARFDSDHDHHYSYYYYYDNGYMDYWGQGTLVTVSS VL: DIQMTQSPSSLSASVGDRVTITCRASQDVWFSVAWYQQKPGKAPKLLIYGTTSLYSGVPSRFSGSGSGTDFTLTISSLQPEDFATYYCQQYFNYPLTFGQGTKVEIKR | 4.38 nM
3 | NP13 (antibody, V domains shown) VH: EVQLVESGGGLVQPGGSLRLSCAASGFTINNYGIHWVRQAPGKGLEWVASIGPYGGSTYYADSVKGRFTISADTSKNTAYLQMNSLRAEDTAVYYCARFGYFNWLDMDYWGQGTLVTVSS VL: DIQMTQSPSSLSASVGDRVTITCRASQDVGYWVAWYQQKPGKAPKLLISSASGLYSGVPSRFSGSGSGTDFTLTISSLQPEDFATYYCQQGWDWPITFGQGTKVEIKR | 9.36 nM
4 | NP14 (antibody, V domains shown) VH: EVQLVESGGGLVQPGGSLRLSCAASGFTIDNGGIHWVRQAPGKGLEWVASIWPSWGSTSYADSVKGRFTISADTSKNTAYLQMNSLRAEDTAVYYCARFNFGVFGVMDYWGQGTLVTVSS VL: DIQMTQSPSSLSASVGDRVTITCRASQDVDNDVAWYQQKPGKAPKLLIYGPRGLYSGVPSRFSGSGSGTDFTLTISSLQPEDFATYYCQQYSSWPLTFGQGTKVEIKR | 19.7 nM
5 | NP4 (antibody, V domains shown) VH: EVQLVESGGGLVQPGGSLRLSCAASGFTISNSSIHWVRQAPGKGLEWVAGIGPSGGYTFYADSVKGRFTISADTSKNTAYLQMNSLRAEDTAVYYCARFHSHNSYYSYSHYGYMDYWGQGTLVTVSS VL: DIQMTQSPSSLSASVGDRVTITCRASQDVGWGVAWYQQKPGKAPKLLISGPSSLYSGVPSRFSGSGSGTDFTLTISSLQPEDFATYYCQQYFNYPITFGQGTKVEIKR | 10.1 nM
